The target of series [1] is Human mitochondrial Hsp70 (mortalin), recombinant (human) (UniProt P38646). The experiment in a line: SEC; analytical SEC (Superdex 200 GL 10/30, TKP buffer pH 7.5) of mortalin directly after Ni2+ affinity chromatography. A general note: In gel filtration, larger molecules generally elute earlier.
For series [2], the system named is T1, Nc1ncnc2c1ncn2[C@@H]1O[C@H](COP(=O)(O)OP(=O)(O)OP(=O)(O)O)[C@@H](O)[C@H]1O.
T1 construct: monomeric SEC fraction, alkaline phosphatase treated
Kind of series: ATPase, EnzChek phosphate assay, Michaelis-Menten fit. It counts as biochemical, Homo sapiens. The conditions noted are these: TKP buffer without phosphate pH 7.5, 2 mM Mg2+, 37°C, no co-chaperone. From the text: ATPase, EnzChek phosphate assay, Michaelis-Menten fit on human mortalin (mtHsp70, GRP75, HspA9, PBP74)

The results in this text go back to PMC4304843, “Human Mitochondrial Hsp70 (Mortalin): Shedding Light on ATPase Activity, Interaction with Adenosine Nucleotides, Solution Structure and Domain Organization” (PLoS ONE, 2015).

A word on the stoichiometry N: it is a count of units in the complex or per binding partner. For orientation: Km means the substrate concentration at which the rate is half of its maximum. As usually defined, the kcat is the maximal rate divided by the concentration of active sites.

Chain of human mortalin (mtHsp70, GRP75, HspA9, PBP74) (Homo sapiens) (chain, as listed by the source): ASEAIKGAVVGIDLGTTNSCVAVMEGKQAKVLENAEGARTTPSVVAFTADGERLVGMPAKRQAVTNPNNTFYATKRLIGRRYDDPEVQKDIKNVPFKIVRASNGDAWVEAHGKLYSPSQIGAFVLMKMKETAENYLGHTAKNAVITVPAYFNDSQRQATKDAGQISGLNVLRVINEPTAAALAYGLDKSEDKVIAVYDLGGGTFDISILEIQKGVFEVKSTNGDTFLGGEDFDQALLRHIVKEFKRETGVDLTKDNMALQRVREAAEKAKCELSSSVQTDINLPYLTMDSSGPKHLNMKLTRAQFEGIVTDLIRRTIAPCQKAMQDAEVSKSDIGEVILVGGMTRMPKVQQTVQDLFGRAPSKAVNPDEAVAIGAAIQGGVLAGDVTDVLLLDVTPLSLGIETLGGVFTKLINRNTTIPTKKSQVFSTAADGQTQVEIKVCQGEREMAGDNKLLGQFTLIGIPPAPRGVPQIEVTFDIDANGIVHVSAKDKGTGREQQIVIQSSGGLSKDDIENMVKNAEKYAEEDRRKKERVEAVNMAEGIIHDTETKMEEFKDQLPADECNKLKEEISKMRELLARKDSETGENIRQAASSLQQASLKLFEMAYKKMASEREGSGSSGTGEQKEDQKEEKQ

“Human mitochondrial Hsp70 (mortalin), recombinant (from UniProt P38646 47-679) (natural protein)”: the stoichiometry N in series [1] stood at 2. On to “human mortalin (mtHsp70, GRP75, HspA9, PBP74) (Homo sapiens)”, for which, in series [2], the Km worked out at 190 ± 20 µM and the kcat was 0.00252 ± 3.33e-05 s⁻¹.
